Experiment: label from the status in PepcDB records
For “HHSVEAPQVKKRMGKFPFVKASKKESEEISKQLHNALDIELPSESTVWLRDKDVWLFPDALEPMIGELRFSRMGIKIAEAHKNGYRWQHQVATALATGAESNAIELTIEEAREWYMGRDVRPQIIPEGLKTGKGEVLVKYQGAIIGLGKWVSNRIKNGLPRELVRDKNLF”, the protein production was “not failed”.
In the case of “HQEIKGRKTLATPAVRRLAMENNIKLSEVVGSGKDGRILKEDILNYLEKQTGAILPP”, the protein production is reported as “not failed”.
In the case of “HRPLNPAMVAFSNDPLLNDLALNSSYSLLFAVNNMKSEKSAEQFYGKMDNQKMLDLVRASSTKIDFDPTLLPTMNSNPATYQGKRKNLVILLQESLGAQFVGSLGGLPLTPNLDELMQEGWQFTQMYATGTRSVRGIEAVTTGFPPSPSRAVVKLSKSQTGFFTIADLLKEQGYHTQFIYGGEANFDNMKTFFFGNGFDQIVEEKNYTNPGFVGSWGVSDEDLYNKADEEFERLSKGDKPFFSLVFTSSNHSPYEYPEGKIEQYDSEHMTRNNAVKYSDYALGTFFDKAKKSSYWDDTIFIVIADHDARVFGANLVPVKHFHIPALIIGKDIQPRKDDRIANNIDMPPTLLSLIGVDAKTPMIGRDLTKPLAREDERAMMQYDKNFGYLTRDNLVVLSPGEKVSTMEYDFESQTMKPLEVDESVIDRAKANALFASKAYQNNWYSSKRTN”, the protein production is reported as “not failed”.
For “HRSDPQIAICLDCLRNNGQSGDNVVKGLMKKFIRCSTRVTVGTIKKFLSLKLKLPSSYELDVLCNGEIMGKDHTMEFIYMTRWRLRGENFRCLNCSASQVCSQDGPLYQSYPMVLQYR”, the protein production was “failed”.
In the case of “HRWITRPKFTHFDLHTLNWDLCLTQANHKSNLALEMLKMLLDSLPETVEKIQTALGQNDQATMLSTIHKLHGASCYCGVPTTQRLCQEIESALKRQTPVEDLEPEILELLDELTKVESAVKQVLSQLSAE”, the protein production is reported as “not failed”.
For “HSFVVLVIGESARKHNYALYGYQKPTTPRLSKRLADNELTLFNATSCATYTTASLECILDSSFKNNAYENLPTYLTKAGIKVFWYSANDGEKNVKVTSYLKNYELIQKCPNCEAIAPYDESLLYNLPDLLKEHSNENVLLILHLAGSHGPNYDNKVPLNFRVFKPYCSSADLSSCSKESLINAYDNTIFYNDYLLDKIISMLENAKQPALMIYLSDHGESLGEEAFYLHGIPKSIAPKEQYEIPFIVYAN”, the protein production was “failed”.
With “HSIPYKNINLPCYFISPANDGEKRDTVMIVSGFDGTLEEEFLMRGLAAVERGYNVIHFAGPGQMDVFRKYPDTYFEPDFEQVVKRIINYFEFRQEINMAKLTLMGISFGGYFATRAASHEPRIKVLIANSPILDLHAYMCSFVKMDPCEMPDSEDFSINDLPSIPNEVMPPQLKAQTEHLIRRFGQPTFKATFHYLREFTVGDSLNHIKIPCLALLGSGEGGEPGKQFAEFCKITNSAQYEFSDFEGAGSHCQVGNVSYSNAVVYDWLDSL” the protein production was “not failed”.
In the case of “HSIVAITDNRGVITHVNEKFCDISQYEYYELVGTTHKIINSGFHPRSFFKQMWKTIAQGNIWKGEICNRTKQGKLYWVDTTIVPLKDND”, the protein production is reported as “failed”.
With “IAAGGSHVEAAPQEEWKKHFIHTGELGSAEFASVMSHTTSAMKSVFEQVNAPYSGMDPKALEDAINAVDLDNKNAPLKSVIDDVAELVAKNAIFTQHPDCIAHLHTPPLMPAVAAEAMIAALNQSMDSWDQASSATYVEQKVVNWLCDKYDLSEKADGIFTSGGTQSNQMGLMLARDWIADKLSGHSIQKLGLPDYADKLRIVCSKKSHFTVQKSASWMGLGEKAVMTVDANADGTMDITKLDEVIAQAKAEGLIPFAIVGTAGTTDHGAIDDLDFIADMAVKHDMWMHVDGAYGGALILSSHKSRLKGVERAHSISVDFHKLFYQTISCGALLVNDKSNFKFLLHHADYLNREHDELPNLVDKSIATTKRFDALKVFMTMQNVGPKALGDMYDHLLAQTLEVADMIRTNDQFELLAEPSLSTVLFRATHETADLDELNKALRLEALTRGIAVLGETIVDGKTALKFTILNPCLTTSDFESLLSKINMLAVELV” the protein production was “not failed”.
In the case of “IAQIPVSVYWMNKNHVYMGCSNNMVKLLNLNSRYDIVGKTYEDLYHEKSTSYYKKADKIVMDKGISLSLEEPFYCPDGTTKEIYLSNKVPLRDLEGKIIGMLGVSVDIT”, the protein production is reported as “failed”.
For “IDTNLLYVFFTSGSTGIPKGVSIAHKSVIDYTFWVCETFKFDENEILANQAPFYFDNSILDIFSSVKSGATLHLLPNHLFAFPNKILECLEKEKVSTIFWVPSVLIYFANTEALNNFSLNALKKMLFCGEIMPNKQLNIWRKHLPNALFANLYGPTEITDVCSFYIINRTFKDEEL”, the protein production was “failed”.
With “IEAENHKVTDKIKNAQPFLVDVVPAKSVIPELNDDAQKTLLHAGPPIQWSEMTGPMKGACIGAALFERWADNEEDALKIFEAGEVRFIPCHHVKAVGPMGGITSGNMPVFVVENRLEGNEAYCILNEGIGKVLRFGAYSQEVVDRLDWIKDVLGPTIAKALKLSEEGLNLNVLIARSITMGDEFHQRNIAASLNFLKELSPLIIKTDIPEDQKYEVIKFLADTDQFFLNVMMATGKAIVDGARKDTNGTIVTTMTRNGVNFGVRIAETGDQWHTAPVNTPKGLYFTGFSEEDGNPDVGDSAITETVGVGAMAMVAAPGVTRFVGAGGFEDALATSNEMAKICEGNNPTFSIPTWDFQGTCLGIDIRKVVELGITPIINTGIAHKNAGVGQIGAGTVRAPLGCFEKALEAYAEKLGITVE” the protein production was “failed”.
For “IEFESRTTDEGVAVVRPAGRLNMVAAPRLRELLRDVVDGGTTCVVVDLSATDFIDSSGLGALIAGLKAARQAGGDLRIAQPTEQVETVLALTNLNRVLRTHDSVDAAFD”, the protein production was “failed”.
In the case of “IEKCWTEDEVKRFVKGLRQYGKNFFRIRKELLPNKETGELITFYYYWKKT”, the protein production is reported as “not failed”.
For “IGIVNDMPLAVEALRRALAFEPQHQIVWVASNGAEAVTQCAADTPDVVLMDLLMPVMDGVEATRRIMAESPCAIVIVTVDIEQNVHRVFEAMGYGALDAVNTPALGIGNPQTAAAPLLRKIQNVGWLIGQRDNRGKVQVVPPKAGGARQRLVAIGASAGGPASLAVLLKQLPASFNAAVVLVQHVDEVFAAGMAEWLASESKLPVRLARDGEPPIPGQILLAGTNNHIRLLRNGSLVYTAEPRSFVYRPSIDVFFESVANYWRGDAVGVLLTGMGRDGAQGLKQMRERGFLTIAQDQASCAVYGMPKAAAAIDAAVQILSLEKIA”, the protein production was “failed”.
In the case of “IGIWFTGTDGRYHFVNKTFCNLVGIEEEDMLNTPSSNLAELLGSEIAHNCLDSDRAALGQDLAHVSYETIPRLNAKPYLLEITKVKLKNTR”, the protein production is reported as “failed”.
In the case of “IHHLPPVKAPLQTKKKIMKHCFLCGKKTGLATSFECRCGNNFCASHRYAEAHGCNYDYKSAGRRYLEEANPV”, the protein production is reported as “not failed”.
In the case of “IHIQQIENLMEYEFSHLVQDSEEEGFNFLIRLINGYKNKVNVFNKTGECLYGIFQGDMLIGVGGLNEDPYTKDNKIGRLRRFYISRDYRRLGLGNLLLNQLLCHAEKYFEVIVLHTDTKQGDVFYTANGFVK”, the protein production is reported as “failed”.
In the case of “IIAWLGPQLRELTPVDTNKDPKTRLQEFLQSRGCDLPRYEVVDIQGEPHCRTFFVDCEVALLSDKTHGHGGSRRIAEQVAAAAALVALGVENGHD”, the protein production is reported as “failed”.
In the case of “ILTENTPYFEQLSVPQRSVGRIIGRGGETIRSICKASGAKITCDKESEGTLLLSRLIKISGTQKEVAAAKHLILEKVSEDEELRKRIAHSA”, the protein production is reported as “not failed”.
With “INIEIAYAFPERYYLKSFQVDEGITVQTAITQSGILSQFPEIDLSTNKIGIFSRPIKLTDVLKEGDRIEIYRPLLADPKEIRRK” the protein production was “not failed”.
In the case of “INSAIELMEHNSSLSISEIAQFTNTSTAYFSRIFKKTIGETPVCFYTKIKLKKVQKLLITTNLTLAEISEQTGFTDPFYLSKVFTTHLGCSPRTYRKN”, the protein production is reported as “failed”.
In the case of “IPLGIYEKALPAGECWLERLKLAKALGFDFVEMSLDETDARLARLDWSPEQRLALVKAVAETGVRVPSMCLSAHRRFPLGSEDDAVRHQGLEIMRKAIQLAQDVGIRVIQLAGYDVYYQQANDETRRRFRDGLKQSVEMASRAQVTLAMEIMDYPLMNSISKALGYAHYLNNPWFQLYPDIGNLSAWDNDVQMELKAGSGHIVAVHVKDTKPGVFKNVPFGEGVVDFERCFETLKQTGYCGPYLIEMWSETSADPLAEVAKARDWVKARMARAGLM”, the protein production is reported as “not failed”.
For “IPTCKITLKETFLTSPEELYRVFTTQELVQAFTHAPATLEADRGGKFHMVDGNVSGEFTDLVPEKHIVMKWRFKSWPEGHFATITLTFIDKNGETELCMEGRGIPAPEEERTRQGWQRYYFEGIKQTFGYGA”, the protein production was “not failed”.
For “IQAGILANSFHVKLSDETQMVVKYQNQPFVNGTFGNWQILEAETINGINQILWRNPDIEEVGIWNTDANWNWISSETWSANSLKTLNAEVTFQIDINNDQLIG”, the protein production was “failed”.
With “IQLIVNGQSQLVPSPDSGTDSGTTNDARLNIRQLLEHMGLQGKRIAVERNGEIVPRSQFDQPMLASGDKLEIVVAVGGG” the protein production was “failed”.
For “IQPTYTSTTRIYVVNQATDNNNLSAQDLQAGTYLANDYKEIITSNDVLSEVIKDEKLNLSEAELSKMVSVNIPTDTRLISISVNAKTGQDAQTLANKVREVASKKIKKVTKVEDVTTLEEAKLPESPSSPNIK”, the protein production was “failed”.
With “IQRSIERALDFRKEVQRLREESDGWFFDIWQPEAVDKAECWPVAPGEDWHGFKDADADHMYLDPVKVTILTPGMDEQGNMDEEGIPAALVAKFLDERGVVVEKTGPYNLLFLFSIGIDKTRAMGLLRGLTEFKRAYDLNLRVKNMLPDLYAEDPDFYRNMRIQDLAQGIH” the protein production was “failed”.
In the case of “IRHEITSRTSVSVLVNRCNWFCTSPKCSGLTVMGCLCVAMSVAKKDKPTMSVTALINWARPLPPGQQQQPMTPTSPGNMLQPMATPSNLPTVDCSLDIQWLNLEGGFMSPMSPPEMKPDTAMLDGLRDDSTPPPAFKNYPPNHPLSGSKHLCSICGDRASGKHYGVYSCEGCKGFFKRTVRKDLTYACREERNCIIDKRQRNRCQYCRYQKCLACGMKREAVQEERQRAARGTEDAHPSSSVQVQELSIERLLEMESLVADPSEEFQFLRVGPDSNVPPKFRAPVSSLCQIGNKQIAALVVWARDIPHFSQLEMEDQILLIKGSWNELLLFAIAWRSMEFLTEERDGVDGTGNRTTSPPQLMCLMPGMTLHRNSALQAGVGQIFDRVLSELSLKMRTLRVDQAEYVALKAIILLNPDVKGLKNRQEVEVLREKMFLCLDEYCRRSRSSEEGRFAALLLRLPALRSISLKSFEHLFFFHLVADTSIAGYIRDALRNHAPPIDTNMM”, the protein production is reported as “not failed”.
With “IRQAARGDAERGLGRRRLMQALDGMEAGCALLDGRGSLQEASHGLCRLLGRGRADLLGMNVADVCAPEDLSRLNAALACGGRMQRLRLRLMDGDGRAVDCELVLTPQEESMDGAAWLLQAED” the protein production was “failed”.
In the case of “ITSFIRNRDKLTQAEYLLRLAGEKASLGGWRIELDPPVITWTSETAVIHGMPPDYSPPDVGTAVQFYAPEFREFIMEVFERCVQQGEPFDVICQLQVPDGRRPWIRAIGEAERDAQGKVIVVQGAFQDIS”, the protein production is reported as “failed”.
In the case of “KDAAWLNGWTSYNKVAREIVLAEMANTTILEEGKIVAELRRLLPDKAGLFIGNSMPIRDVDTYFSQIDKKIKMLANRGANGIDGVVSSALGASVVFQPMFLLIGDLSFYHDMNGLLMAKKYKMNLTIVIVNNDGGGIFSFLPQANEPKYFESLFGTSTELDFRFAAAFYDADYHEAKSVDELEEAIDKASYHKGLDIIEVKTNRHENKANHQALWVKIADALKALD”, the protein production is reported as “failed”.
With “KEGVLCLNTKGQITYANSQALKLLGGSLEELYGKTPQHYFTLENTEGKGMGELLERVLCGESTLQEGSGTLYKKERFLAHVEFTLSPIIDKG” the protein production was “failed”.
For “KEQILSSEQLARKMMLELGDKKQEHLVAIYMDTQNRIIEQRTIFIGTVRRSVAEPREILHYACKNMATSLIIIHNHPSGSPKPSESDLSFTKKIKRSCDHLGIVCLDHIIVGKNKYYSFREEADIL”, the protein production was “not failed”.
